# Measurements from IntAct's records for PubMed 25910212.
# B1: Glycogen phosphorylase, liver form (Homo sapiens), P06737 (parent)
# chain: MAKPLTDQEKRRQISIRGIVGVENVAELKKSFNRHLHFTLVKDRNVATTRDYYFALAHTVRDHLVGRWIRTQQHYYDKCPKRVYYLSLEFYMGRTLQNTMINLGLQNACDEAIYQLGLDIEELEEIEEDAGLGNGGLGRLAACFLDSMATLGLAAYGYGIRYEYGIFNQKIRDGWQVEEADDWLRYGNPWEKSRPEFMLPVHFYGKVEHTNTGTKWIDTQVVLALPYDTPVPGYMNNTVNTMRLWSARAPNDFNLRDFNVGDYIQAVLDRNLAENISRVLYPNDNFFEGKELRLKQEYFVVAATLQDIIRRFKASKFGSTRGAGTVFDAFPDQVAIQLNDTHPALAIPELMRIFVDIEKLPWSKAWELTQKTFAYTNHTVLPEALERWPVDLVEKLLPRHLEIIYEINQKHLDRIVALFPKDVDRLRRMSLIEEEGSKRINMAHLCIVGSHAVNGVAKIHSDIVKTKVFKDFSELEPDKFQNKTNGITPRRWLLLCNPGLAELIAEKIGEDYVKDLSQLTKLHSFLGDDVFLRELAKVKQENKLKFSQFLETEYKVKINPSSMFDVQVKRIHEYKRQLLNCLHVITMYNRIKKDPKKLFVPRTVIIGGKAAPGYHMAKMIIKLITSVADVVNNDPMVGSKLKVIFLENYRVSLAEKVIPATDLSEQISTAGTEASGTGNMKFMLNGALTIGTMDGANVEMAEEAGEENLFIFGMRIDDVAALDKKGYEAKEYYEALPELKLVIDQIDNGFFSPKQPDLFKDIINMLFYHDRFKVFADYEAYVKCQDKVSQLYMNPKAWNTMVLKNIAASGKFSSDRTIKEYAQNIWNVEPSDLKISLSNESNKVNGN
# partner: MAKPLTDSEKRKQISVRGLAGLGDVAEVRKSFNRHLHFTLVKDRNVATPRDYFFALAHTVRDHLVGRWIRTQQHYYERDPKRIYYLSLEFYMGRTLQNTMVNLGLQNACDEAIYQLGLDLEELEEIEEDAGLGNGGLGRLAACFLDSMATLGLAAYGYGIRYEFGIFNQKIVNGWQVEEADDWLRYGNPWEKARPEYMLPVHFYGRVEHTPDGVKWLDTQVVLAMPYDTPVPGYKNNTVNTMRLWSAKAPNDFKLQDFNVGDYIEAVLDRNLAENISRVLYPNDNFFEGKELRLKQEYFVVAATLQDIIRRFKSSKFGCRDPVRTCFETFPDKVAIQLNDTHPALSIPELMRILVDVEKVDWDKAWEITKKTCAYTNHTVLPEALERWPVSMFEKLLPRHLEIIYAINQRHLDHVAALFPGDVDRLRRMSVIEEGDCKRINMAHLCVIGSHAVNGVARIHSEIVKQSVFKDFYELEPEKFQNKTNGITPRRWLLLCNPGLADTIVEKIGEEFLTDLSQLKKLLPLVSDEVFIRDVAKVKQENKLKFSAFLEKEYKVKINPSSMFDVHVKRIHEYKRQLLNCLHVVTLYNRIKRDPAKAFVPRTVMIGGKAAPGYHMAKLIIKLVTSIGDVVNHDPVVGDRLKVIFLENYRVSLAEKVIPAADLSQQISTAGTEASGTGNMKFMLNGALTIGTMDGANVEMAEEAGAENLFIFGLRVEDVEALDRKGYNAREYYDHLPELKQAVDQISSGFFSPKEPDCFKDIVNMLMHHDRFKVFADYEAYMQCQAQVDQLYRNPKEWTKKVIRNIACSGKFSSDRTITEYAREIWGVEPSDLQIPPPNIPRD
# B2: Lipopolysaccharide-induced tumor necrosis factor-alpha factor (Homo sapiens), Q99732 (parent)
# chain: MSVPGPYQAATGPSSAPSAPPSYEETVAVNSYYPTPPAPMPGPTTGLVTGPDGKGMNPPSYYTQPAPIPNNNPITVQTVYVQHPITFLDRPIQMCCPSCNKMIVSQLSYNAGALTWLSCGSLCLLGCIAGCCFIPFCVDALQDVDHYCPNCRALLGTYKRL
# partner: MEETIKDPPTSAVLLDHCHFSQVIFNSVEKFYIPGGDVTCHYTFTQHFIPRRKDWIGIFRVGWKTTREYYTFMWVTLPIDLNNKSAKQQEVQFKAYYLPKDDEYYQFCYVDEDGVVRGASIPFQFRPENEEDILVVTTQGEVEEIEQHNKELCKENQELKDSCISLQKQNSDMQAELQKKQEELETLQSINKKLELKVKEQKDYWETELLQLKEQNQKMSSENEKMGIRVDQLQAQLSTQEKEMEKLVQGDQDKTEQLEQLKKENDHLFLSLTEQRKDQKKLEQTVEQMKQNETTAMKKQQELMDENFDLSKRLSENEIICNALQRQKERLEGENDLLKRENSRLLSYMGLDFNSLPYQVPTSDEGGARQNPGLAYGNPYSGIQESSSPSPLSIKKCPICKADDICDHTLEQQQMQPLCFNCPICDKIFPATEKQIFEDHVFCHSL
# B3: Multifunctional procollagen lysine hydroxylase and glycosyltransferase LH3 (Homo sapiens), O60568 (parent)
# chain: MTSSGPGPRFLLLLPLLLPPAASASDRPRGRDPVNPEKLLVITVATAETEGYLRFLRSAEFFNYTVRTLGLGEEWRGGDVARTVGGGQKVRWLKKEMEKYADREDMIIMFVDSYDVILAGSPTELLKKFVQSGSRLLFSAESFCWPEWGLAEQYPEVGTGKRFLNSGGFIGFATTIHQIVRQWKYKDDDDDQLFYTRLYLDPGLREKLSLNLDHKSRIFQNLNGALDEVVLKFDRNRVRIRNVAYDTLPIVVHGNGPTKLQLNYLGNYVPNGWTPEGGCGFCNQDRRTLPGGQPPPRVFLAVFVEQPTPFLPRFLQRLLLLDYPPDRVTLFLHNNEVFHEPHIADSWPQLQDHFSAVKLVGPEEALSPGEARDMAMDLCRQDPECEFYFSLDADAVLTNLQTLRILIEENRKVIAPMLSRHGKLWSNFWGALSPDEYYARSEDYVELVQRKRVGVWNVPYISQAYVIRGDTLRMELPQRDVFSGSDTDPDMAFCKSFRDKGIFLHLSNQHEFGRLLATSRYDTEHLHPDLWQIFDNPVDWKEQYIHENYSRALEGEGIVEQPCPDVYWFPLLSEQMCDELVAEMEHYGQWSGGRHEDSRLAGGYENVPTVDIHMKQVGYEDQWLQLLRTYVGPMTESLFPGYHTKARAVMNFVVRYRPDEQPSLRPHHDSSTFTLNVALNHKGLDYEGGGCRFLRYDCVISSPRKGWALLHPGRLTHYHEGLPTTWGTRYIMVSFVDP
# partner: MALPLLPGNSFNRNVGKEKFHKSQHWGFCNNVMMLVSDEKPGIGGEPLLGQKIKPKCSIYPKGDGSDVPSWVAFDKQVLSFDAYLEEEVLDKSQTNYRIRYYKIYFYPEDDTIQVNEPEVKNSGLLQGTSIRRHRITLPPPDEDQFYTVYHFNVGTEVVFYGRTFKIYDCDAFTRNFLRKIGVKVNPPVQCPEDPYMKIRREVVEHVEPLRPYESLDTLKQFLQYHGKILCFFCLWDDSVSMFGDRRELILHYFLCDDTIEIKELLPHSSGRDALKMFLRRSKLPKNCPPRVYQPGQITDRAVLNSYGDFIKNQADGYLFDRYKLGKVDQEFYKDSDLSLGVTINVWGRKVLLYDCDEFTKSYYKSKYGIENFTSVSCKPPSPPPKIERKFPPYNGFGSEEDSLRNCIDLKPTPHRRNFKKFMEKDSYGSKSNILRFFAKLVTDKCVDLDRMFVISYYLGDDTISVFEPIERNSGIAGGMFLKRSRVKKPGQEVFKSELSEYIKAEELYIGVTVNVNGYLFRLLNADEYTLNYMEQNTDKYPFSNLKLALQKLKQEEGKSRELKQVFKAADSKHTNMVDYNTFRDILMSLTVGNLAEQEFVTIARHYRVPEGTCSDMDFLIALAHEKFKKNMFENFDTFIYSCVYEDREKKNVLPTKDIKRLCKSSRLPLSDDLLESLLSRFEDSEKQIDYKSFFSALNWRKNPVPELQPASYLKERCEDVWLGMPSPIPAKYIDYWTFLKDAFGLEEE
# B4: U4/U6 small nuclear ribonucleoprotein Prp3 (Homo sapiens), O43395 (parent)
# chain: MALSKRELDELKPWIEKTVKRVLGFSEPTVVTAALNCVGKGMDKKKAADHLKPFLDDSTLRFVDKLFEAVEEGRSSRHSKSSSDRSRKRELKEVFGDDSEISKESSGVKKRRIPRFEEVEEEPEVIPGPPSESPGMLTKLQIKQMMEAATRQIEERKKQLSFISPPTPQPKTPSSSQPERLPIGNTIQPSQAATFMNDAIEKARKAAELQARIQAQLALKPGLIGNANMVGLANLHAMGIAPPKVELKDQTKPTPLILDEQGRTVDATGKEIELTHRMPTLKANIRAVKREQFKQQLKEKPSEDMESNTFFDPRVSIAPSQRQRRTFKFHDKGKFEKIAQRLRTKAQLEKLQAEISQAARKTGIHTSTRLALIAPKKELKEGDIPEIEWWDSYIIPNGFDLTEENPKREDYFGITNLVEHPAQLNPPVDNDTPVTLGVYLTKKEQKKLRRQTRREAQKELQEKVRLGLMPPPEPKVRISNLMRVLGTEAVQDPTKVEAHVRAQMAKRQKAHEEANAARKLTAEQRKVKKIKKLKEDISQGVHISVYRVRNLSNPAKKFKIEANAGQLYLTGVVVLHKDVNVVVVEGGPKAQKKFKRLMLHRIKWDEQTSNTKGDDDEESDEEAVKKTNKCVLVWEGTAKDRSFGEMKFKQCPTENMAREHFKKHGAEHYWDLALSESVLESTD
# partner: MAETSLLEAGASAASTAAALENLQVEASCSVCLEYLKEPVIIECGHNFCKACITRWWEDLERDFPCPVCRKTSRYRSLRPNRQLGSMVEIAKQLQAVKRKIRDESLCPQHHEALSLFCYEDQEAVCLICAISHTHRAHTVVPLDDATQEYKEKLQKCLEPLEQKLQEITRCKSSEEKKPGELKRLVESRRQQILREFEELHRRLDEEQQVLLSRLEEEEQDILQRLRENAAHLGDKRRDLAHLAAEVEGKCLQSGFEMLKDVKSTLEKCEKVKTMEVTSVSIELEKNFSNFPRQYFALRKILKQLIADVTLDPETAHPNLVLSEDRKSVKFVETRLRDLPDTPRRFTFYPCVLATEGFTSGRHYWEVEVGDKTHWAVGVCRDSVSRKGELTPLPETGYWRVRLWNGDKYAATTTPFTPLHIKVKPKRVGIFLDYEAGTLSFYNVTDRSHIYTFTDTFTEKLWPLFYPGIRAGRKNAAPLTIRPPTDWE
# B5: Emerin (Homo sapiens), P50402 (parent)
# chain: MDNYADLSDTELTTLLRRYNIPHGPVVGSTRRLYEKKIFEYETQRRRLSPPSSSAASSYSFSDLNSTRGDADMYDLPKKEDALLYQSKGYNDDYYEESYFTTRTYGEPESAGPSRAVRQSVTSFPDADAFHHQVHDDDLLSSSEEECKDRERPMYGRDSAYQSITHYRPVSASRSSLDLSYYPTSSSTSFMSSSSSSSSWLTRRAIRPENRAPGAGLGQDRQVPLWGQLLLFLVFVIVLFFIYHFMQAEEGNPF
# partner: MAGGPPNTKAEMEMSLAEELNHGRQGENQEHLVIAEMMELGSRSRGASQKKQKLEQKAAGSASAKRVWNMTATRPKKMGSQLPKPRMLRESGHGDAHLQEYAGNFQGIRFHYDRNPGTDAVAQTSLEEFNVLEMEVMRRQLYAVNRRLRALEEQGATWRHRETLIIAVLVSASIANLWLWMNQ
# Variants of: B1
# Details: with pygb_human PYGB
row,Variant,effect of a mutation on the interaction
1,N339S,with no effect

# Variants of: B2
# Details: with caco2_human CALCOCO2, Q13137
row,Variant,effect of a mutation on the interaction
1,I92V,with no effect
2,G112S,disrupting interaction strength
3,A111G,disrupting interaction strength

# Variants of: B3
# Details: with efhc2_human EFHC2, Q5JST6
row,Variant,effect of a mutation on the interaction
1,N223S,with no effect

# Variants of: B4
# Details: with TRIM39, Q9HCM9-2
row,Variant,effect of a mutation on the interaction
1,P493S,disrupting interaction strength
2,A489D,disrupting interaction strength
3,T494M,disrupting interaction strength

# Variants of: B5
# Details: with fate1_human FATE1, Q969F0
row,Variant,effect of a mutation on the interaction
1,P183H,with no effect
2,P183T,with no effect
3,S54F,with no effect
